Experimental data from patent US20190002567A1 (LABORATOIRE FRANCAIS DU FRACTIONNEMENT ET DES …, published 2019).

T1: human CD303 antigen (C-type lectin domain family 4 member C) (human, UniProt Q8WTT0 1-213)
T1 sequence: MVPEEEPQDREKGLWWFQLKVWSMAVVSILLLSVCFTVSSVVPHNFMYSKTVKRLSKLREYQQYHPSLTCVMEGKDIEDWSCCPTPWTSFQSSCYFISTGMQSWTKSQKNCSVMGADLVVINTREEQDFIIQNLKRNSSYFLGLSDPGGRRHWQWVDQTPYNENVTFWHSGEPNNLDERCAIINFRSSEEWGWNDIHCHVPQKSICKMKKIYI


Experiments:
[1] = biological target: T1, human CD303 antigen (C-type lectin …); assay: cell-based or functional assay
FcγRIIIa (CD16a) = biological target: T2, FcγRIIIa (CD16a) (UniProt P08637 17-254, limits assumed); assay: competition with 3G8-PE for CD16 on NK cells, flow cytometry
T2 construct: whole, on cells; also called FcvRIIIa
Description: After washing, the binding of 3G8-PE to CD16 expressed by the NK cells was evaluated by flow cytometry. Mean fluorescence intensity (MFI) values are expressed as a percentage, 100% being the value obtained with the 3G8-PE antibody alone, and 0% the value obtained in the absence of 3G8-PE.

T2 sequence (P08637 17-254 limits assumed): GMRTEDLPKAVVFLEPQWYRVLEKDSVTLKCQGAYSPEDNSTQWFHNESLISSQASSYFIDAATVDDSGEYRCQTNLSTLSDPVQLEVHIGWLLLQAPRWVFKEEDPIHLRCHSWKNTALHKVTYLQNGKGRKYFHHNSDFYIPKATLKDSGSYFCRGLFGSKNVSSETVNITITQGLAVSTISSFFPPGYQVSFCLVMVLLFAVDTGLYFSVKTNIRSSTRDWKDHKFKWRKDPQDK

Row | Binder | ADCC EC50 (ng/mL) on Fc Gamma chain-CD303 Jurkat target cells [1] | ADCC Emax (% lysis) on Fc Gamma chain-CD303 Jurkat target cells [1] | IC50 (FcγRIIIa (CD16a))
1 | chimeric antibody 104C12 (antibody, human IgG1, kappa, Family 1) heavy: not shown light: DLQMTQTPSSLSASLGDRVTISCRASQDINNYLSWYQEKPDGTFKLLIYYTSRLHSGVPSRFSGSGSGTDYSLTVRNLEQEDIGTYFCQQGKTLPWTFGGGTKLEIRRTVAAPSVFIFPPSDEQLKSGTASVVCLLNNFYPREAKVQWKVDNALQSGNSQESVTEQDSKDSTYSLSSTLTLSKADYEKHKVYACEVTHQGLSSPVTKSFNRGEC | 0.214 ng/mL | 41.8 % lysis | 26.8 µg/mL
2 | chimeric antibody 104E10 (antibody, human IgG1, kappa, Family 2) heavy: not shown light: QIVLTQSPAIMSASPGEKVTMTCSASSSVIYMHWFQQKPGTSPKLWIYSTSNLASGVPARFSGSGSGTSYSLTISRMEAEDAATYYCQQRRSYPYTFGGGTKLEIKRTVAAPSVFIFPPSDEQLKSGTASVVCLLNNFYPREAKVQWKVDNALQSGNSQESVTEQDSKDSTYSLSSTLTLSKADYEKHKVYACEVTHQGLSSPVTKSFNRGEC | 8.28 ng/mL | 40.5 % lysis | 18.1 µg/mL
3 | chimeric antibody 114D11 (antibody, human IgG1, kappa, Family 2) heavy: not shown light: QIVLTQSPAIMSASPGEKVTITCSASSSVFYMHWFQQKPGTSPKLWIYSTSNLASGVPARFSGSGSGTSYSLTISRMEAEDAATYYCQQRRSYPYTFGGGTKLEIKRTVAAPSVFIFPPSDEQLKSGTASVVCLLNNFYPREAKVQWKVDNALQSGNSQESVTEQDSKDSTYSLSSTLTLSKADYEKHKVYACEVTHQGLSSPVTKSFNRGEC | 3.61 ng/mL | 37.4 % lysis | 45 µg/mL
4 | chimeric antibody 102E9 (antibody, human IgG1, kappa, Family 2; the text gives the same values for 102E9) heavy: not shown light: QIVLTQSPAIMSASPGEKVTITCSASSSVIYIHWFQQKPGTSPKLWIYSTSYLASGVPARFSGSGSGTSYSLTISRMEAEDAATYYCQQRRSYPFTFGGGTKLEIKRTVAAPSVFIFPPSDEQLKSGTASVVCLLNNFYPREAKVQWKVDNALQSGNSQESVTEQDSKDSTYSLSSTLTLSKADYEKHKVYACEVTHQGLSSPVTKSFNRGEC | 3.42 ng/mL | 38.9 % lysis | 37 µg/mL
5 | chimeric antibody 122A2 (antibody, human IgG1, kappa, Family 1; also called Ch; 122A2 mAb; Ch122A2 mAb) heavy: not shown light: DIQMTQTTSSLSASLGDRVTISCRASQDISNYLNWYQQKPDGTVKLLIYYTSRLHSGVPSRFSGSGSGTDYSLTISNLDQEDIATYFCQQGNTLPWTFGGGTKLEIKRTVAAPSVFIFPPSDEQLKSGTASVVCLLNNFYPREAKVQWKVDNALQSGNSQESVTEQDSKDSTYSLSSTLTLSKADYEKHKVYACEVTHQGLSSPVTKSFNRGEC | 0.159 ng/mL | 42.4 % lysis | 40.4 µg/mL
